Assay results from article PMC5996148, “Data set on G4 DNA interactions with human proteins”.

T1: Peptidyl-tRNA hydrolase 2, mitochondrial (human, UniProt Q9Y3E5 1-179)
T1 sequence: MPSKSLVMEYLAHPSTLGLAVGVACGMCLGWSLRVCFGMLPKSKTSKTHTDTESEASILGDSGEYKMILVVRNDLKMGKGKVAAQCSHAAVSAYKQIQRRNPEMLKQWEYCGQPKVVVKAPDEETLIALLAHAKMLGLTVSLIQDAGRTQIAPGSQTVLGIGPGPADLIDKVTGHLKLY

T2: hypothetical protein HSPC111 (human, UniProt Q9Y3C1 1-178)
T2 sequence: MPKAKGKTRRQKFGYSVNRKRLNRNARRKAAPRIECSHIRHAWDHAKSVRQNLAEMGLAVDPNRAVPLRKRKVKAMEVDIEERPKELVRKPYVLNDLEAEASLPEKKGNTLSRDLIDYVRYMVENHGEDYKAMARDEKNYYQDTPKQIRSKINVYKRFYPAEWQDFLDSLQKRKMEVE

T3: ankyrin repeat and zinc finger domain containing 1 (human, UniProt Q9H8Y5 1-726)
T3 sequence: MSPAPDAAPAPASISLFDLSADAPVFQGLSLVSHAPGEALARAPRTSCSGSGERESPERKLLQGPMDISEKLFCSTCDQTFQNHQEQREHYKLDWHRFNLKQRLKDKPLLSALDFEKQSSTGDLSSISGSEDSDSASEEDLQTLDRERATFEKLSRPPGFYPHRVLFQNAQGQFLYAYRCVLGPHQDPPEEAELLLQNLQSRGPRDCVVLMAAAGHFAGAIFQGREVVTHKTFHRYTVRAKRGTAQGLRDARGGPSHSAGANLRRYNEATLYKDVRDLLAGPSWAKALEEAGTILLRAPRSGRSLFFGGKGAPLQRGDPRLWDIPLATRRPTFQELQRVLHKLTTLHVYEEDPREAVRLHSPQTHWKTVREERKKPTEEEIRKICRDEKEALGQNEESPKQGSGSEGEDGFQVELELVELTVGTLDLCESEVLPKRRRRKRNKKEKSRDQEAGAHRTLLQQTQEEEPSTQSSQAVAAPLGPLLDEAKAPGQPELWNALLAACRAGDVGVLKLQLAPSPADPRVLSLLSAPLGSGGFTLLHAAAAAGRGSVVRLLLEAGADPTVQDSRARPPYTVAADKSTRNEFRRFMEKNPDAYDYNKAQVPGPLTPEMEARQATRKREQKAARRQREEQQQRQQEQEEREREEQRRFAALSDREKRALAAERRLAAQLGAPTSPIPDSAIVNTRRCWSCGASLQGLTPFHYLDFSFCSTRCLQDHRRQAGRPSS

T4: additional sex combs like 1 (human, UniProt Q6P1M8 1-84)
T4 sequence: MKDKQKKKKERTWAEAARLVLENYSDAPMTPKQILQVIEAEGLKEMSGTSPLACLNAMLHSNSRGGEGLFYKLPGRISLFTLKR

T5: chromosome 1 open reading frame 63 (human, UniProt Q9BUV0 1-290)
T5 sequence: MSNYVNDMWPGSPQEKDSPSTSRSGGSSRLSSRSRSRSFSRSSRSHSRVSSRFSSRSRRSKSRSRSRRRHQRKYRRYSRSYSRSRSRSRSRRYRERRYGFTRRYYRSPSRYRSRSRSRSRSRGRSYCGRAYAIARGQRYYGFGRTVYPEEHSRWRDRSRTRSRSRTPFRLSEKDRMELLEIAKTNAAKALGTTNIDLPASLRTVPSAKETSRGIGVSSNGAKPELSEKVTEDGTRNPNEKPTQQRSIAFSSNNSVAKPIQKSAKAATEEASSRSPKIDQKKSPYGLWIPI

T6: survival motor neuron domain containing 1 (human, UniProt O75940 1-238)
T6 sequence: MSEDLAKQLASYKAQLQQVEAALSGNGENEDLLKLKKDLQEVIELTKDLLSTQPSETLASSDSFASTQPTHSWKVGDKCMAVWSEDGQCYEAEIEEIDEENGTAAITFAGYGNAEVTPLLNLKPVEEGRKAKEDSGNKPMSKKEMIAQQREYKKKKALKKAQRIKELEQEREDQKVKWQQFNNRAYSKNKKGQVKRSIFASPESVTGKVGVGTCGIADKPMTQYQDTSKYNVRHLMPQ

T7: LOC153684 protein (FLJ42001 fis, clone SPLEN2029912) (human, UniProt Q6ZVW3 1-145)
T7 sequence: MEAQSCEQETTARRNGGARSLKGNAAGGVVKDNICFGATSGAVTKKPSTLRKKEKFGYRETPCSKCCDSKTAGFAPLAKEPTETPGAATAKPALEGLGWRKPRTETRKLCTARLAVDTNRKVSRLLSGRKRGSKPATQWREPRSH


Legend:
[1] = target: T8, bromodomain containing 3 (human, UniProt Q15059-2 1-556); assay: protein microarray; 2.5 uM ON; 4.85 at 25 uM; Microarray: 20 mM Tris pH 7.5, 5 mM MgCl2, 100 mM KCl, 0.1% Tween-20, A/T-rich ON blocker mix; EMSA: 20 mM Tris-HCl pH 8, 100 mM KCl, 200 nM ON, 0-200 nM BRD3; conditions: protein: commercial; label: biotin; intramolecular parallel G4
T8 sequence (Q15059 other isoform, or with tags, fused parts or gaps): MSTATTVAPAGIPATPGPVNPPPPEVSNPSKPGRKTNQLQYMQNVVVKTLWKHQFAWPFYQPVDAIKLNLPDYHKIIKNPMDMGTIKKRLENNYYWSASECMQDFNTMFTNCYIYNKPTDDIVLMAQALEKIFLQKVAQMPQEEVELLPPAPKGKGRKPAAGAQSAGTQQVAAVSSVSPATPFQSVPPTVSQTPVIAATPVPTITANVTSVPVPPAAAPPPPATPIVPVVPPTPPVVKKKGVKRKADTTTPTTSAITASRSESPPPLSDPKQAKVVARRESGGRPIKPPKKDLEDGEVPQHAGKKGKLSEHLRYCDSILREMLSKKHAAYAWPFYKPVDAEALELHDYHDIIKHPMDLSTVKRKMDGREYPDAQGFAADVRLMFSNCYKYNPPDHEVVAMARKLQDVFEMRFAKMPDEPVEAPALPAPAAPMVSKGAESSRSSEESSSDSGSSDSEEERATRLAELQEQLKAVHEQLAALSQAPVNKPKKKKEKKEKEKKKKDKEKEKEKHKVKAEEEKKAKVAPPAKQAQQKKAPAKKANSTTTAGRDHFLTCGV

[2] = target: T1, Peptidyl-tRNA hydrolase 2, mitochondrial; assay: as above; conditions: protein: commercial; label: biotin; intramolecular parallel G4
[3] = target: T2, hypothetical protein HSPC111; assay: as above; conditions: protein: commercial; label: biotin; intramolecular parallel G4
[4] = target: Coiled-coil domain-containing protein 28A (human, UniProt Q8IWP9 1-274); assay: as above; conditions: protein: commercial; label: biotin; intramolecular parallel G4
Coiled-coil domain-containing protein 28A, sequence (Q8IWP9 whole entry, the tested form may be a part): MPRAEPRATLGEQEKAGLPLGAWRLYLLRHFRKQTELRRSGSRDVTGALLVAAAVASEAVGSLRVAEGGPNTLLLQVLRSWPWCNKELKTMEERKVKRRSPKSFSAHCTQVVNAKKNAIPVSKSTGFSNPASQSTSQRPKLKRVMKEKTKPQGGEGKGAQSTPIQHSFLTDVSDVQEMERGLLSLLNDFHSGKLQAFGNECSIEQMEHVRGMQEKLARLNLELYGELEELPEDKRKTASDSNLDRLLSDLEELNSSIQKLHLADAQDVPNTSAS

[5] = target: peptidyl arginine deiminase, type IV (human, UniProt Q9UM07 1-663); assay: as above; conditions: protein: commercial; label: biotin; intramolecular parallel G4
peptidyl arginine deiminase, type IV, sequence (Q9UM07 whole entry): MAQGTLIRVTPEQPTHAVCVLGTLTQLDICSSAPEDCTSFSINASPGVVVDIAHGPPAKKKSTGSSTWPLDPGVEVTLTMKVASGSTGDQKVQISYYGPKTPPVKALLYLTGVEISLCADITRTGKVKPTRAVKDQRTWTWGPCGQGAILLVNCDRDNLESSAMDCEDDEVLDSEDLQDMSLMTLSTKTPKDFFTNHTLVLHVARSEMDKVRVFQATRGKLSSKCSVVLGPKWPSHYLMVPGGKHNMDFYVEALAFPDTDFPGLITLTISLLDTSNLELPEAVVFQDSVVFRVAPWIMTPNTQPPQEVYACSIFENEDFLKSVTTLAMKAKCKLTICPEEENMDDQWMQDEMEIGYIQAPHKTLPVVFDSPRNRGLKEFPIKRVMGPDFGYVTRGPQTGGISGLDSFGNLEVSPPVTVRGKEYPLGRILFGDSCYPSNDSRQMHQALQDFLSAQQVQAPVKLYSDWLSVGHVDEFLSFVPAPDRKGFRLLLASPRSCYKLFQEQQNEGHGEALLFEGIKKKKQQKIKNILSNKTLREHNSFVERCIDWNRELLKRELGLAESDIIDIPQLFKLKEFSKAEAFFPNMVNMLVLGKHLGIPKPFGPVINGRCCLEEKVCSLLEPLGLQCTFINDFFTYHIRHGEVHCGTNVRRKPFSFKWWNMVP

[6] = target: T9, GABA(A) receptor-associated protein (human, UniProt O95166 1-117); assay: protein microarray; 2.5 uM ON; 4.86 at 25 uM; Microarray: 20 mM Tris pH 7.5, 5 mM MgCl2, 100 mM KCl, 0.1% Tween-20, A/T-rich ON blocker mix; EMSA: 20 mM Tris-HCl pH 8, 100 mM KCl, 200 nM ON, 0-200 nM BRD3; conditions: protein: commercial; label: biotin; intramolecular parallel G4
T9 sequence (O95166 whole entry): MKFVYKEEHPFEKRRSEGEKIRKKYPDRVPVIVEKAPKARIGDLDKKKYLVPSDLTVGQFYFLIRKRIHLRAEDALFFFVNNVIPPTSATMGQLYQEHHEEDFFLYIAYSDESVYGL

[7] = target: Cyclin-dependent kinase-like 3 (human, UniProt Q8IVW4-2 1-455); assay: as above; conditions: protein: commercial; label: biotin; intramolecular parallel G4
Cyclin-dependent kinase-like 3, sequence (Q8IVW4 1-455): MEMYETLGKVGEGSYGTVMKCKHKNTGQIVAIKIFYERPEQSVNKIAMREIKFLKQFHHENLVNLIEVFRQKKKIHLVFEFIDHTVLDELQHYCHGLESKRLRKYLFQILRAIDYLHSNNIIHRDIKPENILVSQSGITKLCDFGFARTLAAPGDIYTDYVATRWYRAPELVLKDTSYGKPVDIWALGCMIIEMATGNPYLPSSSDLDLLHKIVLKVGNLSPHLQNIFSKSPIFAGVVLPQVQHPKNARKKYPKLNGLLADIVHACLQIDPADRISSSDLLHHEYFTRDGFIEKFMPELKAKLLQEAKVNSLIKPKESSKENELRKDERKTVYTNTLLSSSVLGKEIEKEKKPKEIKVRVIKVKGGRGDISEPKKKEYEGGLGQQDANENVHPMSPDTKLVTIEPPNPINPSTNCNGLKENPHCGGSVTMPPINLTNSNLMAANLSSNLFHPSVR

[8] = target: actin related protein 2/3 complex, subunit 1B, 41 kDa (human, UniProt O15143 1-372); assay: as above; conditions: protein: commercial; label: biotin; intramolecular parallel G4
[9] = target: peripheral myelin protein 2 (human, UniProt P02689 1-132); assay: as above; conditions: protein: commercial; label: biotin; intramolecular parallel G4
peripheral myelin protein 2, sequence (P02689 whole entry, the tested form may be a part): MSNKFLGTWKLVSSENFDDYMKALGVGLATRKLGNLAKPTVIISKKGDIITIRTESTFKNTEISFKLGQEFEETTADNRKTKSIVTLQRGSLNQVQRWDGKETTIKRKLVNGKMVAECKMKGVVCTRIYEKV

[10] = target: T3, ankyrin repeat and zinc finger domain …; assay: as above; conditions: protein: commercial; label: biotin; intramolecular parallel G4
[11] = target: T4, additional sex combs like 1; assay: as above; conditions: protein: commercial; label: biotin; intramolecular parallel G4
[12] = target: T5, chromosome 1 open reading frame 63; assay: as above; conditions: protein: commercial; label: biotin; intramolecular parallel G4
[13] = target: T6, survival motor neuron domain containing …; assay: as above; conditions: protein: commercial; label: biotin; intramolecular parallel G4
[14] = target: T7, LOC153684 protein (FLJ42001 fis, clone …); assay: as above; conditions: protein: commercial; label: biotin; intramolecular parallel G4
[15] = target: T8, bromodomain containing 3; assay: protein microarray; 2.5 uM ON; 6.47 at 25 uM; Microarray: 20 mM Tris pH 7.5, 5 mM MgCl2, 100 mM KCl, 0.1% Tween-20, A/T-rich ON blocker mix; EMSA: 20 mM Tris-HCl pH 8, 100 mM KCl, 200 nM ON, 0-200 nM BRD3; conditions: protein: commercial; label: biotin; G4; mixed topology for unmodified strand, CD differs when biotinylated
[16] = target: T9, GABA(A) receptor-associated protein; assay: as above; conditions: protein: commercial; label: biotin; G4; mixed topology for unmodified strand, CD differs when biotinylated
[17] = target: T4, additional sex combs like 1; assay: as above; conditions: protein: commercial; label: biotin; G4; mixed topology for unmodified strand, CD differs when biotinylated
[18] = target: T5, chromosome 1 open reading frame 63; assay: as above; conditions: protein: commercial; label: biotin; G4; mixed topology for unmodified strand, CD differs when biotinylated

| Binder | binding signal [1] [Z-score] | binding signal [2] [Z-score] | binding signal [3] [Z-score] | binding signal [4] [Z-score] | binding signal [5] [Z-score] | binding signal [6] [Z-score] | binding signal [7] [Z-score] | binding signal [8] [Z-score] | binding signal [9] [Z-score] | binding signal [10] [Z-score] | binding signal [11] [Z-score] | binding signal [12] [Z-score] | binding signal [13] [Z-score] | binding signal [14] [Z-score] | binding signal [15] [Z-score] | binding signal [16] [Z-score] | binding signal [17] [Z-score] | binding signal [18] [Z-score] |
| --- | --- | --- | --- | --- | --- | --- | --- | --- | --- | --- | --- | --- | --- | --- | --- | --- | --- | --- |
| GGTGACAGGGGTATGGGGAGGGG (structured_DNA, 3'-biotin) [G4-2 biotinylated (Ct1)] | 6.79 | 3.46 | 6.78 | 6.78 | 6.78 | 6.62 | 6.29 | 6.19 | 6.73 | 6.68 | 6.79 | 6.17 | 6.4 | 6.45 | – | – | – | – |
| GGGGACAGGGGTATGGGGAGGGG (structured_DNA, 3'-biotin) [G4-3 biotinylated (CtG)] | – | – | – | – | – | – | – | – | – | – | – | – | – | – | 4.51 | 7.02 | 9.22 | 5.93 |
